Source: the DeepSol protein solubility set

Test: soluble on expression in E. coli; label from the status in PepcDB or PDB records

**Q.** Which “soluble on expression in E. coli” value does the source give for “MKLLLHICCGPCAVYPVNVLREEGIYFEGLFYNPNIHPYDEFIRRKENVKKLSEIKNVPVKYMDDFSQEIWEKLGEDNEKRCNMCYALRIDKVAGYAKENGFDAFTTTLLVSPYQKHELIVELSKRAGEKYGIEFFYKDFRPGFRQGQQEAKELGLYRQKYCGCIISYREAEKLKSERKSK” here?
**A.** Its value is “soluble”.

**Q.** For “MVRANKRNEALRIESALLNKIAMLGTEKTAEAVGVDKSQISRWKRDWIPKFSMLLAVLEWGVVDDDMARLARQVAAILTNKKRPAATERSEQIQMEF”, which “soluble on expression in E. coli” value is on record?
**A.** Its value is “soluble”.

**Q.** With “MEALRLEGVSKRYGRRPVLEGVSLSVRPGEVYALAGPNGSGKTTLIRLATGLAFPTKGRAFLLGEDVHKSPAARRHLGAVVEAPAAFYPYLTGRENLRMHARLSGVEDEARIGEVLARLKLLAVADQKVEGYSLGQRQRLGLAAAILHRPKVLVLDEPTSGLDPEGVELVHRLLQELAREGVAILLSTHHLQEVARYAHRVGILGGGRLLDEVVLSGKEAYRLEAEPLEGALALLKTLPQVASARLQGRSVVFEGEPEAALRALLAEGYRVRALAPHRFDLLDYYQERVRHV” as the sequence, how does the “soluble on expression in E. coli” value read?
**A.** The value was “soluble”.

**Q.** Which “soluble on expression in E. coli” value does the source give for “MGSDKIHHHHHHMNIDKLDYHSLIIFESISRHLNAGLVANELGMSISSVSRHLGILRDIFKDVLFIRRAQGFVLSDKAIQLLPYIKQLLHDYQVIKHNHIHFNPLTARGHFKIYAYNEFTYVINKVIHQYILPQAPNLTFEVRTLSSDCSRAIEHGEIDFAVVYERFKDHKIICEMFSPTEELFLIAKEGHAVFEDEFTLANLCQYDYFALDNYNDLPMPLLEQLGKTEGKAVNVLGATDNIAALSRHILDGRAISMSCNVFTREFYSLIKGIRTATLPSALTERLLKQITVGRTVGNYLIYSEINQSPTHHWLKQQLFNGIRDEWYLAMGR” here?
**A.** The value was “not soluble”.

**Q.** Which “soluble on expression in E. coli” value does the source give for “MGIHLFWDSRVPVGLSRPVSEELSAVLEMPVSRIDDGIFPLEGFDPVRNQYDAVKVLLKLDMFRRRMPQIFKPADMDLEFYNKFNHLHEKILLVTPGDLYEPLADFVFGLAYPKLGVAIVSPHRLQNEFYGKYADDSALIDRIVKEGAHEIGHLFGLGHCDNPGCIMYCPRNLDELDRKRKYFCGKCRVQLNGDTLEDDLFSLEHHHHHH” here?
**A.** The value was “soluble”.

**Q.** With “MGSSHHHHHHSSGLVPRGSHMYHHYHAFQGRKLTDQERARVLEFQDSIHYSPRYSDDNYEYRHVMLPKAMLKVIPSDYFNSEVGTLRILTEDEWRGLGITQSLGWEHYECHAPEPHILLFKRPLNYEAELRAATAAAQQQQQQQQQQQQQQQQHQTQSISNDMQVPPQIS” as the sequence, how does the “soluble on expression in E. coli” value read?
**A.** The value was “soluble”.

**Q.** Which “soluble on expression in E. coli” value does the source give for “MKHKLIDDELKYLDERSRDIFRHIVEAYLNDGGPVGSRNLSRLLRQTLSPATIRNVMSDLEHLGLIYAPHVSAGRMPTQSGLRFFVDAFMEAGDLPNEERENIEAQVKEAGHAQSVEHFLVQASQVLSDLSRGAGLVLATKHEGTLKHIEFVRLDGEHALAVLVTQQGGVENRIVHLPEGVTHAQLTEATNFLNAHIQGLTLSEAKEEIARLCSETRAALDHLSHHLVETGLALWGGEGADHKIRLIVRGRSNLLEDVKAEEDLKRLRHLFDDLETRESMAQLLDLTDEGSGVRIFIGSENKLFSLSGSSLVVAPYRDSQQKVIGALGVIGPTRLNYARIVPMVDYTAQLVSQLLR” here?
**A.** Its value is “not soluble”.

**Q.** With “GSDELKWNKGYSLPNLLEVTDQQKELSQWTLGDKVKLEEGRFVLTPGKNTKGSLWLKPEYSIKDAMTIEWTFRSFGFRGSTKGGLAFWLKQGNEGDSTELFGGSSKKFNGLMILLRLDDKLGESVTAYLNDGTKDLDIESSPYFASCLFQYQDSMVPSTLRLTYNPLDNHLLKLQMDNRVCFQTRKVKFMGSSPFRIGTSAINDASKESFEILKMKLYDGVIEDSL” as the sequence, how does the “soluble on expression in E. coli” value read?
**A.** The value was “soluble”.

**Q.** For “STVELCGQWDTRTVAGGRYTVSNNVWGAETAQCIEVGLETGNFTITRAEHDNGNNVAAYPNIQFAIPQPRRVQELSDVRTSWTLTPITTGRWNAAYDIFFAANPNHVTYSGDAELMIWLNKNGDVMPIGSRVATVELAGATWEVWYADNGAMNVISYVRTTPTTSVTELDLKAFIDDAVARGYIRPEWYLLSVQTGFELFTGGAGLRSADFSVTVQ”, which “soluble on expression in E. coli” value is on record?
**A.** Its value is “soluble”.

**Q.** With “MSLQRVQIMGAGALGSLVGALIQLAGYDVIFVARGKQLEALKKGLRVSGLKNAELKVYCTSQPEDADITFVTVKAYDTETVAKKLAEVDAGVVCSLQNGVGNEEILAKYCRKVLGGVTTYGANLKDYGHVVYAGEGYTYVGEMDGRVSGEAEMVAEVLRDAGMRAEAVNDIEFRIWAKAVVNAAINPITAICRVKNGEVVRNPHLWEVARAVADEGRQVMARMGYEFDAASEVRKVAEMTAENRSSMLQDLERGKRTEVEFINGAIVKKGEEFGIDCAVNRTLLNLVRGVESGEGHHHHHH” as the sequence, how does the “soluble on expression in E. coli” value read?
**A.** The value was “soluble”.

**Q.** Which “soluble on expression in E. coli” value does the source give for “GWRAKVAGIDPKGSDTHYSEGSSYTFYPYGQAVLLPNIFAHRDVGNTACPGRYGYAQMDNIRNIAKQKYDSIRSGSGATAPAAPSTPSKPAPAPAAPAAPSAPAAPAGTNPIGLLSQGSTPANAGSLVGLAVAAATSLGLIGNLNNIGDVPVIGGLKLSQLQPIIGKIVELLGNNDISRVWRDVNSFAGAALGNARSPIAHYASATGTPIDYALFDNGIVISNPETGTNALWGTIGDLWAQQGFEAGPLGLPTSSVFEVDGLQRVNFQHGYITFNPTTSAVDIQVQ” here?
**A.** Its value is “not soluble”.

**Q.** With “MLDKLGGIAVQPEALTWLLTPCRFKAELLTRIENAKTSIYIAALYLEDDEAGREILQVLMTAKANNPALDIKVLVDFHRARRGLIGHKGDSGNYLMYRKVMAEAKHPIEIMGVPVKSREFMGVLHLKGFVIDDAVIYSGASLNNIYLQQNDKYRFDRYHVIESAELARSMRAMIQRYIIADPAVTSLTQDAQQEVLPPKTDVRSFKLRLSQAQYEFNETRSGNRVTPLLGLGRKHNLLNKTVIAMVEESKDRLFICTPYFNPPYILVRALAKHLRKGKRIDIVVGDKTANDFYIPPEQDFSTIGALPYLYEQSLRKFAKRQQWAIDNGQLNIHLWKHGINSYHLKGISTDGRKHLITGSNLNPRAWALDLENGILIHDETGSWKAQFEAEQAHILEHTQRLYHYSQVDTLQSYPDPVKKIMNRIRRLKADFLLRRILLEHHHHHH” as the sequence, how does the “soluble on expression in E. coli” value read?
**A.** The value was “soluble”.

**Q.** With “MGSDKIHHHHHHMVELKAPLTTLWRGKDAFEEVKTLQGEVFRELETRRTLRFELDGKSYFLKWHKGTSLKEIVKNLISLRMPVLGADREWHAIHRLHELGVDTMHGVGFGEKGVNPLTRTSFIITEDLTPTISLEDYCADWAVNPPDAQVKWMIIKRVATMVRKMHAGGINHRDCYICHFLLHLPFTGREEDLKISVIDLHRAQIRQHVPLRWRDKDLIGLYFSSMNIGLTQRDIFRFMREYFSLPLREILQKESGLIHQADVKAARIKERTIRKNL” as the sequence, how does the “soluble on expression in E. coli” value read?
**A.** Its value is “not soluble”.

**Q.** For “MGSDKIHHHHHHMNDIIKLIKSIIIEMDMEAYIVGGYIRDKLMNPKNSASDLDIAFQGDFEKILDELRKRKIKVSSIKKDSSVYRITVNGYCADISKIKGKNINEDLSKRDFTVNAIALDIKNNKIVDPFDGRVHIKRRILQVIDEKSFEDDAVRILRGIRFYIKYGMHFNGYTEEYIRKHSKNIMKFPRDRVLDEIIHIIHEDENGVFFEVMDQYMILKNILPYMEELKTVGKCKHHLVDAFTHMNTAYHVFKDMKKKYLKVKNINIEEFNKDIGVYNELDYLAFAIFTHDIGKYVSYKKEGQKISFKGHDEKGLEIIEKVCDELKFPNDGKKIVCSVVKNHMYPLMLFKLKEDERKQEEYEFFNKFDQYVPHIIVASFCDVYATTIYIDENNEKDRFTSFISELVVKYREFINLKKIKYIDGNDLIDMGFRGNDIGNILNELNKMLYIEGSKTKKEQQDFVLRMKDKL”, which “soluble on expression in E. coli” value is on record?
**A.** Its value is “not soluble”.

**Q.** Which “soluble on expression in E. coli” value does the source give for “MSLGTNPFYKIKREGEISLKLKNQLFRLYFLLIYSSLENLQMADKKSPVAVGMTVTPSNQANFVDAGSTTLMNKPGEPTFKLGINLNKVEFKCTEDRKPISVNLKLHNPMAVTVSYKVRCTSADIFRVQPPLGFVKPNETVSIVIWYQNQDKKDAISKNHYFAFYHTTSDGRTARELWANSKVEGVRRLPASFLSTK” here?
**A.** Its value is “not soluble”.

**Q.** With “MPVLYKPFQSNLEDKKSGKKLFYPHVVRTGNINSAQLSKEIAAYSSLSPGDVKNTLDNLVTVMAQHLQSSESVSVDGLGTFRMVMSARGRGVETADEVSAAQATLTVRFQPTTTKNLDRTTATRSMVTGAKCARYDKLVSAPGDGGSVDDPNDKPGGGSDGGDDGEAPDPTV” as the sequence, how does the “soluble on expression in E. coli” value read?
**A.** The value was “not soluble”.
